Measured values reported in the DeepSol protein solubility set.

Assay: soluble on expression in E. coli; label from the status in PepcDB or PDB records

Soluble on expression in E. coli, not soluble:
MGSDKIHHHHHHMSAIAERSKPSEHMPVLPEFTPLERAIINRLQYGLPLTRTPYKDVADELGVSEVTLLKHLQALLDNGTLTRFGPMFHAGEMGGGLTLAAMRIPEQDFANVTEQVNSFPEVAHNYRREHELNMWFVLATETPEGITETIQRIESLTGYTVYNMPKEQEFHVHLHFEV, MGSDKIHHHHHHMSAQTRPAPGRHTIRVSEDDCGLGQFGGGAWLSDAALWPSDPSTGRPMTPIVMLTDLFLPSVWLADDMAVTVFAALGRESDAYNRTALRTFTIHQQSELEKIDAGHSKVVLHRRAAREMVRETVMLPRHFVGLQPFDERDAEEEAEDADNGAGMSKQLGRPYWLQDPIHAHPRHYFLSQFVESDLRQQDPAYDGLFADGTGYLFAEQRAKVLREGDTAGYFFIQFT, MGSDKIHHHHHHMSAYPPLNSLRIFEAAARLESFSAAAGELFVTHGAVSKQIKQLEDWLGVQLFERSGGRVRLTDAGWRYLVQVQDGLDLIANATSQLLQPNRQRRLTINSTPTFAAFWLLPRLAGFRSQLPELELHLVTSDRDLSRLDAPFDVAIRRGPGDWPGHIAKPFLKEWELPLCSPALLSRQPLAQAADLTQHTLLHADTRPTAWPRWLTLAGAPELKPACSLHFDKFSLALQAAVDGLGVVLGPLPMAHELIAAGKLVSPLPGPVVTVRDYCWVVPRMSAEDATVATFCRWLEGEAEKAGLSGVESG, MGSDKIHHHHHHMSDFSPIAWTEGMFLRPQHMQQQERFLQHQQARTAKNNNPLAWGVVSYEVNYGLLPLGQFGLDRIDCVFPDNTLACLPEQSPLPTAITVPAGTLDQLVYLVLPVAKSNGMNISSSEQNQITRYSYEDHNIVDTSVGSDAMEVLQVAKLDCRLKLQSEDRSGYVSIAIARVIDVSEEGVIRLDKKFIPACIGIEHIKTLMNMTTEVTGMINQRAEAIAGRLSQSQGTSSSIADFLMLQLLNKYQPIFEHYGVVNHIHPELLFRTLISFSGELSTFSSPNKRPPKFPVYQHDNLTYVFSNTMVIVNHGLSSVLEQSATELILEKTKFGVYFSTIADKSMLDNAEFILAVKANVPHDELRQRLPSQIKIGSVETIRELVNNQLPGIGISNLPVAPRQVPYHAGYHYFQLDKNNSHWIKLKSSGGVAMHISGAYPELQIELWAVSI, MGSDKIHHHHHHMSDIQLSLLNDFQRGFPLTSTPFDAIAQRLGLDVEALLDTLRRLTREGVVSRVGAVFRPNRVGVSTLAAMAVPEGRLDEVARLVSARPEVNHNYEREHRFNLWFVAAAANPAQLEQALHDIEQQTGLAAMRLPMVQDYHIDLGFDLRRSVGLTDRHQQKAAPSRALELDALDYVLVEAIQEGLPLVARPYAEVAAFIGTSEADVLIRLGRLLDHGVIKRLGIVVRHHELGFRANAMVVWNIPDEQVDEFGRCVGASGLVNLCYQRPRRLPEWPYNLFCMIHGKDRDAVLEHLDHLRDQCGLTDFPCEVLFSKRRFKQTGARYLAAQPKAAAEAT, MGSDKIHHHHHHMSDKTDSSQGKSEPESSENNNDKTSVDNSVKSPLTIAISKNTKILALFAIACTLAVSLVSELTKDRIKVQEQQQLLRTLHSIIEPSRYDNDIANDCIMMSAPELGSNKVKTAYIARKAGQVVAVAITSTAPQGYNGNIDFIMAINNDGSVSGVRVLKHQETPGLGDKIEIRKSDWIKSFTGKRILSEDDSRWAVTKDNGMFDQFTGATITPRAVVKGVKSTLNYFNQHKGSLIPRPNACGEALSTTKSISPISEAANEQ, MGSDKIHHHHHHMSDPAGKPCIICVAITGSLPTKENNPAVPITLAEQVESTHEAFEAGASIAHCHVRDDEGRPTSDPDRFAALKEGLERHCPGMIVQLSTGGRSGAGQARGAMLPLCPDMASLSVGSNNFPTRVYENPPDLVDWLAAEMLKYDIKPEIEAFDLSHILQAKRMAGDGRLAGTPYVQFVMGVRNAMPADRDVFDYYIHTVRRLFGEDAPWCAAGIGPSQIVLNEWAISSGGHARTGLEDNVRLDRDRLAPSNAALVGRAVELCEKYERPVATWRQARQILGLRMV, MGSDKIHHHHHHMSDQTRQPNSSSGLSQLLTGRLRSKLAAGVTHLTSGSGPTLDYSSPPGDPGLFGPDSVCWKVHADFTSMMTGGISALLLQALHPLALAGVWDHSAFRTDILGRLRRTATFIAGTTYGNRHDALALVERVKRIHLGVSGVAPDGRPYRASEPALLTWVHVAEVSSFMTAHLRYVNPLLPVAAQDQYFAETARIAEMLGASDIPRSRAGIDAYLLAMQPELVASERTRELVRILMNAPAPSASMRPAGVLMLNAGVDLLPDWAQAMLGFQRYAALRRAVTRPGVRLVAPVIRWALVNGVSKRARRRVAAGVREPE, MGSDKIHHHHHHMSDVIEQYFVKNEPYYRPVADEVKLYEAAYSVRMPMMLKGPTGCGKTRFVEYMAWKLGKPLITVACNEDMTASDLVGRFLLDAQGTRWQDGPLTTAARYGAICYLDEVVEARQDTTVVIHPLTDNRRVLPLEKKGELVGAHPDFQLVISYNPGYQSLMKDLKQSTKQRFGALDFNYPQHDIETEIVSHETGIDSAIADKLVSIAERARNLKGHGLDEGISTRMLIYAGNLIAKGVDVHAACRMALVRPITDDPDMRDALDAAVTTFF, MGSDKIHHHHHHMSDVVLNKGIVIEQLRYGHGNDVLVVDAWQLGTAEHWAIFATDSYSGSLLGRILSGDITPDQGIITGLPQRIGWVSLGQQQALLARELAKDELDYGSSVELLVLECCQGAQQLGPLLQQVGLEHLRLRGFRQLSTGETRRVMLARALAMQPQLLILDDPYAGLDCEHQESLSQLLDEVAKNCQLLLITSRQEELPECISHVALFNTEMLQSGQSIHKLSLPMSIKEWHSHPIMAQLHALSAQRSDELLALLVRQRHKVEDFDPLVEIKNGKVEYVSGLIFSGVNWRIEAGQHWQVRGPNGCGKSTLLGLILGDHPQCYSNDITLFGRPRGSGESIWEIKQRIGIVSSALHLQYRVSCSALDVLLSGFFDSIGLYHKPTKLQHDLAKEWLAILHMSELAHISFKQLEYGQQRLLLIGRALIKKPLLLILDEPYQGLDFINRTLVMRTLEMIAHHHLSQLLYVSHHREDALPSIKHFIDFVRQGDGYSVQVSHL, MGSDKIHHHHHHMSEAILNICSVSKRFGDNLANDDISLSLGKGEIVALLGENGAGKTTLMSILFGHYVPDSGKVLVEGRELPPGKPRAAIRAGIGMVHQHFSLAPNLTVLENVMAGTERLWHLRSGTSAARRKLHRICQRFGLTVEPDARVGDLSVGEQQRVEILKALYNDAHILVLDEPTAVLTNLEAERLFSTLKDMAREGLSLIFISHKLDEVMAAANRIVVLRGGRKVAERLAKETNKAELAELMVGRRVARPVREPSTPGEVVLKVADVSVSIDGVERLKSIDFSLRAGEVLGIIGVSGNGQTTLAHLLSGTLRRDKGDLLLFGEPIGDLTVDDAVRAGIGRIPEDRNKEGAIGEMAIWENAVLERLPRFSRYGLVDRPSGQAFAGQIIDAFDVRGGRPTTRTRLLSGGNMQKLILGRNLMDRPRILLAAQPARGLDEGAVAAVHERLLEARRAGTAVLLISEDLEEVMALADRIQAIVNGRLSPPIAADSASATKLGLMMAGEWNEEHEVPHAF, MGSDKIHHHHHHMSEAINHGIIKSYVDGLTTSTLLMPNLPTAEHAVALAKNYPGLFVGQHTNFLLGKPCADPCMIPSLVDEQGNFHRSSYYRQQKQVTFVYEEVRLETIAQLTRFKELTGHYPEHFDCHSIGDEVVDQVFLELAEEYGLHTTLKYSGEKEYPPQQGYFQVTHLLESGALSYIHEGVSVENFLEDDFGLLRMPESAIAEMHFDVGYLDQFVLDNSSYTTLRCKELATICDPRVRQWFEEQGIERITFGDLKK, MGSDKIHHHHHHMSEPVKGAQTVTRALSVLKHISHAHPFGIAIGELSEVSQLDRATTYRLASTLVSFGLVERDAARKYRLGVEAMQLGLSAMRSAPIVGQLQPAMRRLARRTEDTVFLVVRSGDYGHCIHCEEGTYPVKAMVLQVGGMRLLGVGSAGMTLLSMLSDVEVLALYQRHQEEFSRGPSFAKLKRMVGEARERGYADTVDLVTEGVSGVGMRFELSAGSHAAVSVAAIRSRMTPERKKWIAEIIAEELQVSGFTPAYSRVS, MGSDKIHHHHHHMSFTVATIAREPWPVLNRFLTWHLDQGAERIILYLDDPDDPSLPRLRGEPRIDARPCTPAFWRQIGLKQDARFTRRQRGVLSQAYHELEDGWLLVLDADEMMWMSGRTIPEALATLPDEAQSLRVRSAEQVRLSDGSEAFRTPIERAAVDRVYGDLSGLLRARFGFTYHPEGKSFHRAGQRLNMKLHWAQDANGDRTPGPVWGRAERAYLMHYAAPDYARWRAKVNWRAGASGFVLPVKEQITEIAESNDPEAGYQDLYRTLHGLTDAQALALEAEGGLLRDGPKVLDLGG, MGSDKIHHHHHHMSGFLTFDFENQAVRAFEHDGQEWFVAVDVCRCLRLENSRQALTRLSDDEKRSCNLNTLTDSKGIIFNAINDSDGIRAGNPNATIVNEPGLYRLIFTSTKPEAERLKRFVFHEVLPALRHTGCFAPEPVIDWEIAREQLSLVREARLAHGKEAAAALWRELGLPMPKDETSDKERRQAQGLMKYVYDFIDECMVFDQKAEVTGKEVYQRYQQWSATNNAPYIMNSSFGRFLIRAGIVKRHVSTGSRYIGVRLKHHIQITDQSS, MGSDKIHHHHHHMSGKPAARVTDPTTCPVPGHGSNPIVQGSPDVVFDGLPAARQGDASACGSPMISAVSSTVLINGLPAVTLGSIGAHGNVVIGGSGTVLIGDVFTPAPRAPALPLNRNSVPCSGRFQLIDHETGKPVAGRRVRVWSSGGWNAFDTTDADGMTSWIERPTAEILYIDLVQRCDA, MGSDKIHHHHHHMSGYKVFIVDDEADIALILKLQLEDAGYRTMRARDGIEALDALERESFDLVLLDIRMPRMDGIEVLERIRDRWPDLVVIMMTAHGSEDIAVEAMKKGAVDYISKPFSSDDMKKRVERAIQFNRTRLENERLQRVLDEERRKMGAILRGMADLLVAVDREGRIITINRAAEERFGIAADGVQNQPVELLLKTDIPGERLPCRVVLATGDPCLDVTYAVQAGGGMIPVLSSATPLKGAGGEMMGCVEIIRDISTLKALEREREDFVSMLSHDLKTPITAVVGSIDLVREGRIGPVNAEQRSYLDSAMESCAEMVDMIDTLLDVHRFEAGRMVMAARLEDLGPLMARTLGRFDSVARRAGIALVLTLPDYPLALSLDRNQFARLMGNLIANAIKFTQEGGEIEVSARLLNDPAELVGRIPRESYPDVPLPPLNPHLLITVRDTGVGIPADSLVSIFDRFVQARNRRLGKSTGTGLGLAFCRKVMDAHHGYIWAESVEGEGSSFNMLFPLTNEAYAATGG, MGSDKIHHHHHHMSHKFKFLTLPHRSGEVANVFIHGYSAGHDMEDRCALRKCIPSSLHNCINIFAFWPSGHWAKFDDWSSKSILAAGRLSFLAGAGLAVADRAFHFNTSRKRATAMGKTLLSQLETYLLKHHPYVSKVNLVGHSLGGRVVIHALLDLQGKPADDSLVIGDVLLMAAASTLSGDEAKTIGERINGKLYNAWSSDDKVLLFNLGENSAGRQEIDHCQNVPMHGFGHTDYWPRLDRVLRASGFHGYRGGLPSAIQPELVIKNPDPVVADHLLYDLLELTSDGIRSQVVKHLRSSSWTKLETEHPLYLLTKEFQLLGGHCLVNLARGKGLKYVQILLMLAEHYGLVSELHDCAQVIEMEALLISKCFQSSFGEEHVLASMQDIVLQIHGLSEKEYFEQVDALAASLTVTSYISTPETPAPVYRKTGSAQTGDSKELVLASGSFLTSFSTLMPTERMKAAVINLKSAVKPGYSALIPAVAAVFYARLKLNNEGLL
